Laboratory results from article PMC6707828 (Biochemistry, 2018).
Substitutions are numbered along the chain they refer to.

Legend:
SufS (alone) = SufS (alone) (Escherichia coli, UniProt P77444); details: covalent (Schiff base with K226)
[1] = biological target: SufS (first binding site) (Escherichia coli) (UniProt P77444); experiment: ITC; details: cited from earlier work
[2] = biological target: SufS (second binding site) (Escherichia coli) (UniProt P77444); experiment: ITC; details: cited from earlier work
SEC = biological target: the molecule itself; experiment: SEC

Molecule: Cc1ncc(COP(=O)(O)O)c(C=O)c1O [PLP]
- UV-Vis of PLP liberated from purified enzyme (SufS (alone)): UV-Vis spectroscopic analysis of PLP liberated from wild-type and the variant enzymes

Molecule: SufE (from UniProt P76194)
- Kd [1]: 4 µM
- Kd [2]: 300 µM

B1: SufS E96A (enzyme, E. coli)
chain: MIFSVDKVRADFPVLSREVNGLPLAYLDSAASAQKPSQVIDAEAEFYRHGYAAVHRGIHTLSAQATEKMENVRKRASLFINARSAEELVFVRGTTAGINLVANSWGNSNVRAGDNIIISQMEHHANIVPWQMLCARVGAELRVIPLNPDGTLQLETLPTLFDEKTRLLAITHVSNVLGTENPLAEMITLAHQHGAKVLVDGAQAVMHHPVDVQALDCDFYVFSGHKLYGPTGIGILYVKEALLQEMPPWEGGGSMIATVSLSEGTTWTKAPWRFEAGTPNTGGIIGLGAALEYVSALGLNNIAEYEQNLMHYALSQLESVPDLTLYGPQNRLGVIAFNLGKHHAYDVGSFLDNYGIAVRTGHHCAMPLMAYYNVPAMCRASLAMYNTHEEVDRLVTGLQRIHRLLG
modifications: PLP cofactor (89-97% PLP incorporation)
- stoichiometry N (SEC): 2

B2: SufS E250A (enzyme, E. coli)
chain: B1 chain with A96E, E250A
modifications: PLP cofactor (89-97% PLP incorporation)
- stoichiometry N (SEC): 2
